According to patent US20140287433A1:

Columns and labels:
[1] = target: GST-Synaptotagmin II (SytII) fusion protein (rat)
[2] = target: PL150 (Pharmaleads): [(Ac-60-94)VAMP](Pya74,Nop77); assay: cell-based or functional assay
[3] = target: VAMPtide (o-Abz/Dnp) (List Biological Laboratories, Inc.); assay: cell-based or functional assay

| Substance | increase of binding at pH 5.2 against pH 7.2 [1] | lowest toxin concentration detected by substrate cleavage (fluorescence) [2] | limit of detection of the toxin by VAMPtide cleavage [3] | lowest toxin concentration detected by substrate cleavage (fluorescence) [3] |
| --- | --- | --- | --- | --- |
| purified 150 kDa BoNT/B from C. botulinum strain Okra B (Metabiologics Inc.) | 100% | 10 pM | 2 nM | 2 nM |
| BoNT/B complex from C. botulinum strain Okra B (Metabiologics Inc.) (from UniProt B1INP5 2-1291) |  |  | 5 nM |  |
